The record followed here is patent US20060121553A1, “Fluorogenic enzyme assay methods, kits and compositions using charge-balancers” (Applera Corporation, priority 2004, published 2006).

*: point of attachment. Palmitoyl = CCCCCCCCCCCCCCCC(=O)*; K(Dye 2) = not defined here; code O = not defined here

Data set [1] is described as follows: Total charge of substrate molecule and charge-balance molecule. Format: physicochemical. From the text:
FIG. 6B illustrates an exemplary charge-balance molecule (i.e. C16ArgArgOOOArgArgIleTyrGlyArgPheNH2, wherein OOO represents the optional O-spacers) that can be used balance the charge of the substrate molecule illustrated in FIG. 6A. The substrate molecule illustrated in FIG. 6A comprises a fluorescent moiety containing a sulfonate anion with a charge of ^−2. The substrate molecule illustrated in FIG. 6A further comprises a substrate moiety comprising three glutamate residues, each with a −1 charge. Thus, the total negative charge of the substrate molecule illustrated in FIG. 6A is ^−5 at physiological pH. […] The total positive charge of the charge-balance molecule illustrated in FIG. 6B is ^+5 at pH 7.6. Thus, the net charge of the compound comprising the substrate molecule illustrated in FIG. 6A and the charge-balance molecule illustrated in FIG. 6B is approximately zero at pH 7.6.

In another data set the target is tyrosine kinase Lyn (Homo sapiens, UniProt P07948). As to the kind of experiment: Detection of protein kinase activity (fluorogenic micelle assay). The settings on record: 2 μM substrate molecule, 2 μM charge-balance molecule, 0 or 100 μM ATP, 5 nM Lyn; FIG. 8. Format: biochemical. The method, then: Kinase assays were performed using Corning 384-well, black, non-binding surface (NBS), microwell plates. Fluorescence was read in real time using a Molecular Dynamics Gemini XS plate reader, with excitation and emission set at 500 and 550 respectively. The plate was read every minute for one hour at ambient temperature.
Concentrations of the substrate molecule C16Lys(Dye 2)OOOGluGluIleTyrGlyGluPheNH2 and charge-balance molecule C16ArgArgOOOArgArgIleTyrGlyArg PheNH2 were determined by dilution of the purified peptides into dimethylformamide (200 µL) with 1 M NaOH (5 µL) and measuring the absorbance of 5-carboxy-2′,7′-dipyridyl-sulfonefluorescein (Dye2) at its absorbance maximum (548 nm). The extinction coefficient of Dye2 was assumed to be 80,000 cm1M-1.
A reaction solution was prepared containing the substrate molecule C16Lys(Dye 2)OOOGluGluIleTyrGlyGluPheNH2 (2 μM), and charge-balance molecule C16ArgArgOOOArgArgIleTyrGlyArg PheNH2 (2 μM), 20 mM Tris buffer, pH 7.6, MgCl2 (5 mM), DTT (5 mM) and Lyn (5 nM). The solution was pipetted into wells of a 384-well plate ([…] per well). ATP (0 or 100 μM) was added to initiate the kinase reaction. The plate was read at 500 nm excitation, 550 nm emission, each minute for 1 hour.

In data set [2] the test system is T1, substrate molecule C16Lys(Dye 2)OOOGluGluIleTyrGlyGluPheNH2.
T1 sequence: KEEIYGEF

tyrosine kinase Lyn, sequence (P07948 whole entry): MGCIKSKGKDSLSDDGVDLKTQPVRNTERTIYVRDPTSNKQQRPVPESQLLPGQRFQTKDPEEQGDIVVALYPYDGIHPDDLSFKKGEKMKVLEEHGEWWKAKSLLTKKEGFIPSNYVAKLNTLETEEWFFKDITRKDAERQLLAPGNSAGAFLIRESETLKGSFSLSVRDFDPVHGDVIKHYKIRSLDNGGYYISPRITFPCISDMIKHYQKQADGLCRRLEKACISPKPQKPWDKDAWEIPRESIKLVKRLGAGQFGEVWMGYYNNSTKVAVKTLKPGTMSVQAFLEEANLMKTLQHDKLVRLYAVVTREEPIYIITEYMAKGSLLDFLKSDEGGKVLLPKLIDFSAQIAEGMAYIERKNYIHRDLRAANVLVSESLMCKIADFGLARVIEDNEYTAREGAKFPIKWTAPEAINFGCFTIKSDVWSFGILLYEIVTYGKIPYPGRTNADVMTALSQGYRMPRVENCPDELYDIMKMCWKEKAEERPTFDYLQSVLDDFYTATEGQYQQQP

“C16ArgArgOOOArgArgIleTyrGlyArgPheNH2 ({Palmitoyl-Arg-Arg-code O-code O-code O}-RRIYGRF-NH2; reading uncertain; also: printed as C16ArgArgOOOArgArgIleTyrGlyArgPheNH2) [charge-balance molecule balancing the charge of the substrate molecule; OOO = O-spacers]”: in data set [1] (pH 7.6), the total positive charge result is given as “+5”. In turn, “C16Lys(Dye 2)OOOGluGluIleTyrGlyGluPheNH2 ({Palmitoyl-K(Dye 2)-code O-code O-code O}-EEIYGEF-NH2; reading uncertain; also: printed as C16Lys(Dye 2)OOOGluGluIleTyrGlyGluPheNH2) [substrate molecule for tyrosine kinase Lyn; OOO = O-spacers, Dye2 = 5-carboxy-2′,7′-dipyridyl-sulfonefluorescein]” came in with a total negative charge in data set [1] (physiological pH) of −5. Besides, in the data set with tyrosine kinase Lyn, the “fluorescence change on addition of tyrosine kinase Lyn” value is given as “increase in fluorescence over time”. For the substance tyrosine kinase Lyn, the “fluorescence over time (rate of the kinase reaction, 0 or 100 µM ATP)” value in data set [2] was “The addition of tyrosine kinase Lyn to the micelle comprising the substrate molecule and charge-balance molecule cause an increase in fluorescence over time”.
